Target: mortalin (mitochondrial Hsp70, mHSP70) on PANC-1 cell surface (Homo sapiens, UniProt P38646 P38646:47-679)
Assay: flow; intact PANC-1 cells, 37 C, 15.6-500 nM aptamer; target identified as mortalin by pulldown/MS
Conditions: tags: endogenous, label: Cy3 (flow) or 3'-biotin (SPR, pulldown), multi-stem-loop (Mfold)
Experimental: FIG. 1A-1G: Showing the secondary structure and pancreatic cancer specific internalization (FIG. 1A). Cartoon of the secondary structures of P19 (SEQ ID NO:2) and P1 (SEQ ID NO:4) are shown; aptamers were selected from randomized N40 RNA libraries and were predicted using the Mfold program. (FIG. 1B) Cy3-labeled RNAs were tested for binding to PANC-1 and NC as control cells by flow cytometry. Data represent the average of three replicated. Initial RNA library pool is shown as Library, P1 and P19. Cy3 labeled P19 and P1 incubation in. (FIG. 1C) Cy3-labeled RNAs (100 nM) was tested for internalization by confocal in negative cells, PANC-1 and MIA PaCa-2: Cy3-labeled RNA. (FIG. 1D) Cy3-labeled RNAs (100 nM) was tested for the internalization in primary pancreatic epithelial cells; Cy3-labeled RNA. (FIG. 1E) The representative images by histopathological screen in pancreatic cancer and normal pancreas. The samples were stained with Cy3 labeled aptamer P1 and P19 respectively and examined at 100× magnification. White arrow indicate that P19 binding to cancer region. Cy3-labeled RNA. (FIG. 1F) A total of 72 patients of pancreatic adenocarcinoma had undergone. The Correlation coefficient between P1 and P19 is 0.891. […] Median fluorescence intensity (MFI) was measured and calculated using one site binding non-linear curve regression with a Graph Pad Prism.

mortalin (mitochondrial Hsp70, mHSP70) on PANC-1 cell surface, sequence (P38646 47-679, one chain of several): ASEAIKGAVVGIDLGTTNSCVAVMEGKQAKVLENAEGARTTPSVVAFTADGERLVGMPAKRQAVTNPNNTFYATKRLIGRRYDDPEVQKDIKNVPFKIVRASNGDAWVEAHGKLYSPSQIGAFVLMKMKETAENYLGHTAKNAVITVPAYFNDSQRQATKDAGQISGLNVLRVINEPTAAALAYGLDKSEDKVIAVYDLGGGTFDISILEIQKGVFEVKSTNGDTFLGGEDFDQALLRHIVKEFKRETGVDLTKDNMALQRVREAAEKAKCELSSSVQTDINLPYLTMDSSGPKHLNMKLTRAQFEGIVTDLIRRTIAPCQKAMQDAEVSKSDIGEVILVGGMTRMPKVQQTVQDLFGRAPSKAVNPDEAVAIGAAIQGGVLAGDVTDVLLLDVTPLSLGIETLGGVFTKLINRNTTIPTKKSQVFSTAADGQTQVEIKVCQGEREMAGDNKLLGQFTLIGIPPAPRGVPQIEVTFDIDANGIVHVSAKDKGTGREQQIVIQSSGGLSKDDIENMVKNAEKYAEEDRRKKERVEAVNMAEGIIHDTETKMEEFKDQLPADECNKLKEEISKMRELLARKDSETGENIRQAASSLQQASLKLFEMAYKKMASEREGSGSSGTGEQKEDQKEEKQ

B1: P19 (ssRNA)
RNA: GGGAGACAAGAAUAAACGCUCAAUGGCGAAUGCCCGCCUAAUAGGGCGUUAUGACUUGUUGAGUUCGACAGGAGGCUCACAACAGGC
modifications: 2'-F pyrimidines
- Kd: 13.1 nM

Source: patent publication US20180087053, “ANTI-CANCER RNA APTAMERS” (CITY OF HOPE, published 2018)
